Test results from patent publication US20220073610A1 (CHANGCHUN GENESCIENCE PHARMACEUTICAL, published 2022).
Blank lines part the entries; values can stand above or below the binder they belong to.

Columns and labels:
human CD47 [1] = target: T1, human CD47 (human, UniProt Q08722 19-139, limits assumed); experiment: ELISA of transient expression product; the sheet names no antigen and shows one curve per antibody; format not stated for this figure, read as the PD-L1/CD47 bridging ELISA of Example 3
T1 construct: also called hCD47

human PD-L1 [2] = target: T2, human PD-L1 (human, UniProt Q9NZQ7 19-238, limits assumed); experiment: as above
T2 construct: also called hPD-L1

[3] = target: T3, Human CD47-His (constructed by GeneScience) (human, UniProt Q08722 19-139); experiment: SPR, Biacore T200, CD47-His coupled to chip, antibody as analyte
T3 construct: also called hCD47
Method: (§1) The affinities of antibodies with B2 structure and with FV1 structure were detected by Biacore T200 instrument. The specific protocols were as follows. Human PD-L1-His and human CD47-His were coupled to CMS biosensor chip (GE), and then the antibodies of different concentrations were flowed through the chip at a flow rate of 30 μL/min. The binding between the candidate antibody and antigen was performed with a binding time of 120 s and a dissociation time of 300 s. The kinetic fitting was performed using BIAevalution software (GE), and the results of affinity constants were obtained as shown in Table 2 and Table 3.

Human PD-L1-His = target: T4, Human PD-L1-His (human, UniProt Q9NZQ7 19-238, limits assumed); experiment: SPR, Biacore T200, PD-L1-His coupled to chip, antibody as analyte
T4 construct: not shown: His tag
Method: as §1

[4] = target: T3, Human CD47-His (constructed by …); experiment: bridging ELISA of Example 3: PD-L1-mFc coated, purified antibody titrated, CD47-His as second antigen; paragraph 132 prints the value without a unit, the unit is from the sheet's axis Antibody(ug/ml)
Method: (§2) 1. Coating the first antigen: Human PD-L1-mFc (constructed by GeneScience, SEQ ID NO: 22) was diluted with PBS to 1 μg/mL, and then added to a 96-well microtiter plate at 50 μL per well and incubated overnight at 4° C.
(§3) 4. Adding the second antigen: Human CD47-His (constructed by GeneScience, SEQ ID NO: 23) was diluted with PBS to 10 μg/mL, and then added to the 96-well microtiter plate at 50 μL per well and incubated at 25° C. for 1 hour.
(§4) 8. Detection: After terminating the reaction, the microtiter plate was immediately put into the microplate reader. The OD value at 450 nm was measured, and the original data was saved for sorting.

[5] = target: Human PD-L1-mFc (constructed by GeneScience) (human); experiment: as above
Method: as §2, §3, §4

human CD47 [6] = target: T1, human CD47; experiment: ELISA of transient expression product; no antigen named on the sheet; PD-L1 Ab and CD47 Ab are both flat, so read as the PD-L1/CD47 bridging ELISA of Example 3; no unit beside the EC50, unit taken from the axis Antibody(ug/ml)
human PD-L1 [7] = target: T2, human PD-L1; experiment: as above

T1 sequence (Q08722 19-139 limits assumed): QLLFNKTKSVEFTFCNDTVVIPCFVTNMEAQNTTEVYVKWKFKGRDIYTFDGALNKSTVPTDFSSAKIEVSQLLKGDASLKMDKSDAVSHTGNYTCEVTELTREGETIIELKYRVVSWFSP
T3 sequence (Q08722 other isoform, or with tags, fused parts or gaps limits assumed): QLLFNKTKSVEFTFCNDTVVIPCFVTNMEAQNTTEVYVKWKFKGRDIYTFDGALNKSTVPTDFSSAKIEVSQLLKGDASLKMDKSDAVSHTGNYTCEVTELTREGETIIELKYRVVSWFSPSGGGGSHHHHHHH
T4 sequence (Q9NZQ7 19-238 limits assumed): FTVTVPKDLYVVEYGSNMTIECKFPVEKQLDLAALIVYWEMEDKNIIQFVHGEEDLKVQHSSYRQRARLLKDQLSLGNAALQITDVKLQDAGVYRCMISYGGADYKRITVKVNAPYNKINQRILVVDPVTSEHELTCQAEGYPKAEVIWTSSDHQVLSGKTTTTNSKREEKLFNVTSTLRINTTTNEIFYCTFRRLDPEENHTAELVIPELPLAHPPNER
T2 sequence (Q9NZQ7 19-238 limits assumed): as above
Human PD-L1-mFc (constructed by GeneScience) (human), sequence (chain, as listed by the source limits assumed): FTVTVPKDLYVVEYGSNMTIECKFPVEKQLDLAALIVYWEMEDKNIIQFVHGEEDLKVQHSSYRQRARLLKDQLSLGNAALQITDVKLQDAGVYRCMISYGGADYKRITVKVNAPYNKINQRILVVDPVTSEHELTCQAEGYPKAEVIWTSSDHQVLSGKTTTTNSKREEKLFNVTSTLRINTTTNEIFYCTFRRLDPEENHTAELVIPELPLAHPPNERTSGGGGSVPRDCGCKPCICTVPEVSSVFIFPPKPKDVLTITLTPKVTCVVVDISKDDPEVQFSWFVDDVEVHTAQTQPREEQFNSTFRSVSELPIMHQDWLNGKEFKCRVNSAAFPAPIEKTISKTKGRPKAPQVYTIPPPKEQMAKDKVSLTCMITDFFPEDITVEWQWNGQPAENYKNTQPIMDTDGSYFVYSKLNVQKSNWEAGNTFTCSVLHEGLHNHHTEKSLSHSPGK

EC50 (read off the curve) (human CD47 [1]): ~0.09 µg/mL
EC50 (read off the curve) (human PD-L1 [2]): ~0.09 µg/mL
B1: B4 (bispecific antibody)
chain 1: QVQLVQSGAEVKKPGASVKVSCKASGYTFTNYVLHWVRQAPGQRLEWMGYFNPYNDDSKYNEKFKGRVTITRDTSASTAYMELSSLRSEDTAVYYCARGGYYSMDYWGQGTLVTVSSGGGGSGGGGSGGGGSASDIVMTQTPLSLPVTPGQPASISCRASQSLAHSNGYTYLQWYLQKPGQSPQLLIYKVSKRFSGVPDRFSGSGSGTDFTLKISRVEAEDVGVYYCSQSTHVPYTFGQGTKVEIKASTKGPSVFPLAPSSKSTSGGTAALGCLVKDYFPEPVTVSWNSGALTSGVHTFPAVLQSSGLYSLSSVVTVPSSSLGTQTYICNVNHKPSNTKVDKKVEPKSCDK
chain 2: RTVAAPSVFIFPPSDEQLKSGTASVVCLLNNFYPREAKVQWKVDNALQSGNSQESVTEQDSKDSTYSLSSTLTLSKADYEKHKVYACEVTHQGLSSPVTKSFNRGECEVQLVESGGGLVQPGGSLRLSCAASYFPFSDSWIHWVRQAPGKGLEWVAWISPYGGSSYYADSVQDRFTISADTSKNTAYLQMNSLRAEDTAVYYCAKRHWPGGFDHWGQGTLVTVSSGGGGSGGGGSGGGGSASDIQMTQSPSSLSASVGDRVTITCSASQDVTTAVAWYQQKPGKAPKLLIYSASFPYRGVPSRFSGSGSGTDFTLTISSLQPEDFATYYCQQYMYHPSTFGQGTKVEIK
notes: also called B4 structure; H4+L4

EC50 (read off the curve) (human CD47 [1]): ~0.2 µg/mL
EC50 (read off the curve) (human PD-L1 [2]): ~0.2 µg/mL
B2: B1 (bispecific antibody)
chain 1: ASTKGPSVFPLAPSSKSTSGGTAALGCLVKDYFPEPVTVSWNSGALTSGVHTFPAVLQSSGLYSLSSVVTVPSSSLGTQTYICNVNHKPSNTKVDKKVEPKSCDKQVQLVQSGAEVKKPGASVKVSCKASGYTFTNYVLHWVRQAPGQRLEWMGYFNPYNDDSKYNEKFKGRVTITRDTSASTAYMELSSLRSEDTAVYYCARGGYYSMDYWGQGTLVTVSSGGGGSGGGGSGGGGSASDIVMTQTPLSLPVTPGQPASISCRASQSLAHSNGYTYLQWYLQKPGQSPQLLIYKVSKRFSGVPDRFSGSGSGTDFTLKISRVEAEDVGVYYCSQSTHVPYTFGQGTKVEIK
chain 2: EVQLVESGGGLVQPGGSLRLSCAASYFPFSDSWIHWVRQAPGKGLEWVAWISPYGGSSYYADSVQDRFTISADTSKNTAYLQMNSLRAEDTAVYYCAKRHWPGGFDHWGQGTLVTVSSGGGGSGGGGSGGGGSASDIQMTQSPSSLSASVGDRVTITCSASQDVTTAVAWYQQKPGKAPKLLIYSASFPYRGVPSRFSGSGSGTDFTLTISSLQPEDFATYYCQQYMYHPSTFGQGTKVEIKRTVAAPSVFIFPPSDEQLKSGTASVVCLLNNFYPREAKVQWKVDNALQSGNSQESVTEQDSKDSTYSLSSTLTLSKADYEKHKVYACEVTHQGLSSPVTKSFNRGEC
notes: also called B1 structure; H1+L1

Kd [3]: 15 nM
Kd (Human PD-L1-His): 0.271 nM
koff (Human PD-L1-His): 0.000119 s⁻¹
kon (Human PD-L1-His): 440000 M⁻¹ s⁻¹
EC50 [4]: 1.66 µg/mL
EC50 [5]: 1.66 µg/mL
EC50 (human CD47 [6]): 0.0887 µg/mL
EC50 (human PD-L1 [7]): 0.0887 µg/mL
B3: bivalent bispecific antibody with FV1 structure (H5+L5+H6+L6) (bispecific antibody, human IgG1, kappa)
heavy 1: not shown
light 1: DIQMTQSPSSLSASVGDRVTITCSASQDVTTAVAWYQQKPGKAPKLLIYSASFPYRGVPSRFSGSGSGTDFTLTISSLQPEDFATYYCQQYMYHPSTFGQGTKVEIKRTVAAPSVFIFPPSDEQLKSGTASVVCLLNNFYPREAKVQWKVDNALQSGNSQESVTEQDSKDSTYSLSSTLTLSKADYEKHKVYACEVTHQGLSSPVTKSFNRGEC
heavy 2: not shown
light 2: DVVMTQTPLSLPVSLGDQASISCRSSQSLVHSKGNTYLHWYLQKPGQSPKLLIYRVSNRFSGVPDRFSGSGSGTDFTLKISRVEAEDLGVYFCSQSTHVPFTFGSGTKLEIKLGGC
notes: It is IgG1-based with knob-into-hole CH3 domains; also called FV1 bispecific antibody

EC50 (human CD47 [6]): 0.179 µg/mL
EC50 (human PD-L1 [7]): 0.179 µg/mL
B5: FV3 (bispecific antibody, human IgG1, kappa)
chain 1: not shown
chain 2: DIQMTQSPSSLSASVGDRVTITCSASQDVTTAVAWYQQKPGKAPKLLIYSASFPYRGVPSRFSGSGSGTDFTLTISSLQPEDFATYYCQQYMYHPSTFGQGTKVEIKRTVAAPSVFIFPPSDEQLKSGTASVVCLLNNFYPREAKVQWKVDNALQSGNSQESVTEQDSKDSTYSLSSTLTLSKADYEKHKVYACEVTHQGLSSPVTKSFNRGEC
chain 3: not shown
chain 4: DVVMTQTPLSLPVSLGDQASISCRSSQSLVHSKGNTYLHWYLQKPGQSPKLLIYRVSNRFSGVPDRFSGSGSGTDFTLKISRVEAEDLGVYFCSQSTHVPFTFGSGTKLEIKGGGGSGGGGSGGGGSASLGGC
notes: also called FV3 structure; H5+L5+H8+L8

Second part, the binder before the results:

B4: FV2 (bispecific antibody, human IgG1, kappa)
chain 1: not shown
chain 2: DIQMTQSPSSLSASVGDRVTITCSASQDVTTAVAWYQQKPGKAPKLLIYSASFPYRGVPSRFSGSGSGTDFTLTISSLQPEDFATYYCQQYMYHPSTFGQGTKVEIKRTVAAPSVFIFPPSDEQLKSGTASVVCLLNNFYPREAKVQWKVDNALQSGNSQESVTEQDSKDSTYSLSSTLTLSKADYEKHKVYACEVTHQGLSSPVTKSFNRGEC
chain 3: not shown
chain 4: DVVMTQTPLSLPVSLGDQASISCRSSQSLVHSKGNTYLHWYLQKPGQSPKLLIYRVSNRFSGVPDRFSGSGSGTDFTLKISRVEAEDLGVYFCSQSTHVPFTFGSGTKLEIKSGGGGSASLGGC
notes: also called FV2 structure; H5+L5+H7+L7
EC50 (human CD47 [6]): 0.186 µg/mL
EC50 (human PD-L1 [7]): 0.186 µg/mL

B6: FV4 (bispecific antibody, human IgG1, kappa)
chain 1: not shown
chain 2: DIQMTQSPSSLSASVGDRVTITCSASQDVTTAVAWYQQKPGKAPKLLIYSASFPYRGVPSRFSGSGSGTDFTLTISSLQPEDFATYYCQQYMYHPSTFGQGTKVEIKRTVAAPSVFIFPPSDEQLKSGTASVVCLLNNFYPREAKVQWKVDNALQSGNSQESVTEQDSKDSTYSLSSTLTLSKADYEKHKVYACEVTHQGLSSPVTKSFNRGEC
chain 3: not shown
chain 4: DVVMTQTPLSLPVSLGDQASISCRSSQSLVHSKGNTYLHWYLQKPGQSPKLLIYRVSNRFSGVPDRFSGSGSGTDFTLKISRVEAEDLGVYFCSQSTHVPFTFGSGTKLEIKSGGGGSASLGGC
notes: also called FV4 structure; H5+L5+H9+L7
EC50 (human CD47 [6]): 0.146 µg/mL
EC50 (human PD-L1 [7]): 0.146 µg/mL

B7: bivalent bispecific antibody with B2 structure (H2+L2) (bispecific antibody)
heavy: ASTKGPSVFPLAPSSKSTSGGTAALGCLVKDYFPEPVTVSWNSGALTSGVHTFPAVLQSSGLYSLSSVVTVPSSSLGTQTYICNVNHKPSNTKVDKKVEPKSCDKEVQLVESGGGLVQPGGSLRLSCAASYFPFSDSWIHWVRQAPGKGLEWVAWISPYGGSSYYADSVQDRFTISADTSKNTAYLQMNSLRAEDTAVYYCAKRHWPGGFDHWGQGTLVTVSSGGGGSGGGGSGGGGSASDIQMTQSPSSLSASVGDRVTITCSASQDVTTAVAWYQQKPGKAPKLLIYSASFPYRGVPSRFSGSGSGTDFTLTISSLQPEDFATYYCQQYMYHPSTFGQGTKVEIK
light: QVQLVQSGAEVKKPGASVKVSCKASGYTFTNYVLHWVRQAPGQRLEWMGYFNPYNDDSKYNEKFKGRVTITRDTSASTAYMELSSLRSEDTAVYYCARGGYYSMDYWGQGTLVTVSSGGGGSGGGGSGGGGSASDIVMTQTPLSLPVTPGQPASISCRASQSLAHSNGYTYLQWYLQKPGQSPQLLIYKVSKRFSGVPDRFSGSGSGTDFTLKISRVEAEDVGVYYCSQSTHVPYTFGQGTKVEIKRTVAAPSVFIFPPSDEQLKSGTASVVCLLNNFYPREAKVQWKVDNALQSGNSQESVTEQDSKDSTYSLSSTLTLSKADYEKHKVYACEVTHQGLSSPVTKSFNRGEC
notes: The two chains form a heterodimer through a CL-hinge disulfide bond, and there is no Fc; also called B2 bispecific antibody; preferred antibody B2
Kd [3]: 25.8 nM
Kd (Human PD-L1-His): 0.109 nM
koff (Human PD-L1-His): 4.28e-05 s⁻¹
kon (Human PD-L1-His): 395000 M⁻¹ s⁻¹
EC50 [4]: 0.564 µg/mL
EC50 [5]: 0.564 µg/mL
